# Assay: yeast display, Sf9 membrane polyspecificity reagent, FACS + sequencing; frameworks hold sequencing errors
# Outline: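 Polyreactivity labels are assigned by the sorting gate from which each nanobody was recovered. The gates were low and high (top ~1%), set on anti-HA fluorescence for expression and streptavidin fluorescence for reagent binding. Before sorting, galactose-induced (36–48 hours) yeast display cells were stained for 1 hour at 4 °C with 10% biotinylated, detergent-solubilized Sf9 membrane reagent.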
row,Sequence,polyreactivity (PSR sort gate)
1,QVQLVETGGGLVQAGGSLRLSCAASGLIFYSYTMGWYRQAPGKERELVAVISRSGTSTYYADSVKGRFTISRDNAKNTVYLQMNSLKPEDTAVYYCAARAYVSHYGVSNFGYYYWGQGTQVTVSS,high polyreactivity
2,QVQLVETGGGLVQAGGSLRLSCAASGNTFHSNAMGCYSQAPGKERELVAAITPSDGDPYYADSVKGRFTISRDNAKNTVYLQMNSLKPEDTAVYYCAAEDDPGEYEYWGQGTQVTVSS,low polyreactivity
3,QVQLVETGGGLVQAGGSLRLSCAASGNTFVLYAMGWYRQAPGKERELVAAIRRGVRTYADSVKGRFTISRDNAKNTFYLQMNSLIPDDTAVYYCAAYYVFLDNDYWGHGTQVTVSS,high polyreactivity
4,QVQLVETGGGLVQAGGSLRLSCAASGRIFSNYVMGLYRQAPVKERELVAAISGSGGRTYYADSVKGRFTISRDNAKNTVYVQMNSRTPEDTAVYYCAARRSERDRYGGYYYWGQGTQVTVSS,high polyreactivity
5,QVQLVETGGGLVQAGGSLRLSCAASGRIIRYNAMGWYSQAPGKERELVAAISTRGGNTYYADSVKGRFTISRDNAKNTVYLQMNSLKPEDTAVYYCNARSSLPYNYWGQGTQVTVSS,high polyreactivity
6,QVQLVETGGGLVQAGGSLRLSCAASGRISQNAMGWYRQAPGKERELVAAITFSGGSTYYADSVKGRFTISRDNAKNTVYIQMNSLKAEDTAVYYCNVRQYTDGMKYDYWGQGTQVTVSA,low polyreactivity
7,QVQLVETGGGLVQAGGSLRLSCAASGRISYDYAMGWYRPPPGKERELVAAITTGGNTYYADSVKGRFTISRDNAKNTVYLQLNRLKPEDTAVYYCSVRGPYVRYNRYNYVYWGQGTQVTVSS,low polyreactivity
8,QVQLVETGGGLVQAGGSLRLSCAASGRIYYVYDMGWYRQAPGKERELVAAISWSGGSTSYADSVKGRFTISRDNAKYTVYLQMNSLKPDDTAVYYCAATSAIGWGYDYWGQGTQVTVSS,low polyreactivity
9,QVQLVETGGGLVQAGGSLRLSCAASGRNFNWNTMGWYRQAPRKEREFDAAISGSGGSTYYADSVKGRFTISRDNAKNTVYLQMISLKPEDTAVYYCAKRLYYSYYDEMDYWGQGTQVTVSS,high polyreactivity
10,QVQLVETGGGLVQAGGSLRLSCAASGRTFDGNVMGWYRQEPGKERELGAAISDRGTRTYYADSVKGRFTISRDNAKNTVYLQMNSLKPEDTAVYYCATRVYFSPYRYDYWGQGTQGTVSS,high polyreactivity
11,QVQLVETGGGLVQAGGSLRLSCAASGRTFRAYAMGWYRQAPGKEMELVAAITSGGSTKYADSVNGRFTISRDNAKNTVYLQMTRLKPEDTAVYYCAATLALESYIYDYWGQGTQVTVSS,high polyreactivity
12,QVQLVETGGGLVQAGGSLRLSCAASGRTFRYNAMGWYRQAPGKERELVAAITGSGGSTYYADSVKGRFTISRDNAKNTVYLQMNSLKPEDTAVYYCARAYSYRLYPYGSWGQGTQVTVSS,high polyreactivity
13,QVQLVETGGGLVQAGGSLRLSCAASGRTFWYYAMGWYRQAPVTERELVAYADSVKGRFTISRDNAKNTVYLQMNSLKPEDTAVYYCAVGPVVWFSSSLYYTDYYYWGQGTEVTVSS,low polyreactivity
14,QVQLVETGGGLVQAGGSLRLSCAASGRTFYGNAMGWYRQAPGKEREFVAAIRGSGGSTYYADSVKGRFTISRDNAKNTVYLQMNSLKPEDTAVSYCNRGWAYGSAYYAKYYYWGQGTQVTVSS,high polyreactivity
15,QVQLVETGGGLVQAGGSLRLSCAASGRTYAFYAMGWYRQAPGKERELVASISSSGDRPYYADSVKGRFTISRDNAKNTVFLQLNSLKPEDTAVYYCAARWRYTYYYWGQGTQVTVSS,high polyreactivity
16,QVQLVETGGGLVQAGGSLRLSCAASGSIFEYNAMGWYRQAPGKERELVAAISWSSGTTYYADSVKGRFTISRDNAKNSVYLQMNSLKPEDNAVYYCNAGRYGKDSVYWGQVTQVTVSS,low polyreactivity
17,QVQLVETGGGLVQAGGSLRLSCAASGSIFGAYAMGWYRQAPGKERELVAAITWTAGSTFYADSVKGRFTISRDNAKNTVYLQMNSLKPEDTAVYYCAAEYYTETQWSRYYRYYYWGQGTQVTVSS,low polyreactivity
18,QVQLVETGGGLVQAGGSLRLSCAASGSIFLKYAMGWYRQAPGKERELVAAISWSGGRTYYADSVKGRFTISRDNAKNTVYLQMNSLIPEDTAVYYCAAAGRVNNGYRGYGYWGQGTQVTVSS,high polyreactivity
19,QVQLVETGGGLVQAGGSLRLSCAASGSIFPSYAMGWYRPAPAKERELVAAISRSAGSTYYADSVKGRFTISRDNSKNTVYLQMNSLKPEDTAVYYCADDGYSSRYRYDYWGQGTQVTVSS,low polyreactivity
20,QVQLVETGGGLVQAGGSLRLSCAASGSIFSIYAMGWYRQAPGKERELVAAISWSGGSTYYADSVKGRFTISRDNAKNTVYLQMNSLKPEDTAVYYCLRQDYHYHPYDYWGQGTQVTVSS,low polyreactivity
21,QVQLVETGGGLVQAGGSLRLSCAASGSIFTYYAMGWSRQAPGKERELVAAITSGGSTYYADSVKGRFTISRDNAKNTVYLQMNSLKPEDTAVYYCNAVTFYRYYTGKYDYWGQGTQVTVSS,high polyreactivity
22,QVQLVETGGGLVQAGGSLRLSCAASGSIFVLYAMGWYRQAPGKEREFVAAISSSGGSTYADSVKGRFTISRDNAKNTVYLQMNSLKPEDTAVYYCARDVYLSDPPRDYDYWGQGTQVTVSS,low polyreactivity

row,Sequence,polyreactivity (PSR sort gate)
1,QVQLVETGGGLVQAGGSLRLSCAASGSIFVRNAMGWYRQAPGKERELVAAINRDGGRTYYADSVKGRFTISRDNAKNTVYLQMNSLKPEDTAVYYCNAGGVSFEYGYWGQGTQVTVSS,high polyreactivity
2,QVQLVETGGGLVQAGGSLRLSCAASGSIFYGYAMGWYSQSHGQEREFVAAITFSATSTYYADSVKGRFTISRDNAKNPVYLQMNSLKPEDTAVYYCAAVIGDWQYQYYYWGQGTLVTVSS,low polyreactivity
3,QVQLVETGGGLVQAGGSLRLSCAASGSILYYKPMGWYRQAPGKERELVASISLTGGSTTYADSVKGRFTISRDNAKNTVYLQMNSLKPEDTAVYYCNATQYPAADRSTNNYGGGFDSWGQGTQVTVSS,low polyreactivity
4,QVQLVETGGGLVQAGGSLRLSCAASGSISGFIDMGWYRQAPGKERELVAAISYSGGRTYYADSVKGLFTISRDNAKNTVFLQMNSLKPEDTAVYYCAADKFIYSKYTVIRDDYWGQGTQVTVSS,high polyreactivity
5,QVQLVETGGGLVQAGGSLRLSCAASGSTFSRNAMGWYRQAPGKEREFVAAISWSGSSTYYADSVKGRFTISRDNEKNTVYLQMNSLKPEDTAVYYCAARETWYPYYWMGYWGQGAQVTVSS,high polyreactivity
6,QVQLVETGGGLVQAGGSLRLSCAASGSTFWRNSMGWYRHAPGKEREFVASISWSGGGTYYADSVKGRFTISRDNAKNTVYLQMNILKPEDTAVYYCAATPYWSYWYGNGDYDYWGQGTQVTVSS,low polyreactivity
7,QVQLVETGGGLVQAGGSLRLSCAASGSTFYNYAMGWYRQAPGKEREFVAAISWGGGSTRYADSVKGRFTISRDYAKNTVYLQMNSLKPEDTAVYYCAARYPHYDYYYWGQGTQVTVSS,high polyreactivity
8,QVQLVETGGGLVQAGGSLRLSCAASRSIFLYYAMGWYRQAPGKERELVAAISYSGSGTYADSVKGRFTISRDNAKNTVYLEMNSLKPEDTAVYYCNVDYGSYSYDYWGQGTQVTVSS,low polyreactivity
9,QVQLVETGGGLVQAGGSLRLSCADSGSICEQYTMGWYRQAPGKERELVAGSSSGGITNYADSVKGRFTISRDNAKNTVYLQMNSLKPEDTAVYYCAADNWYLAEYDYWGEGTQVTVSS,low polyreactivity
10,QVQLVETGGGLVQAGGSLRLSCAPSGLSIGYYAMGWYRQAPGKEREFVAAITWNGGSTYADSVKGLFTISRDNAKNTVYLQMNSLKPEDTAVYYCAADLSYWDDFDYWGQGTQVTVSS,low polyreactivity
11,QVQLVETGGGLVQAGGSLRLSCAPSGRIFTYYGMGWYRQPPGKERELVAAITRSGGSTRYADSVKGRFTISRDNAKNTVYLQMNSLKPEDTAVYYCNAGGYWRYDYWGQGTQVTVSS,high polyreactivity
12,QVQLVETGGGLVQAGGSLRLSCAPSGRILYGYAMGWYRQAPGKERELVASITWSGGSTYADSVKGRFTISRDNAKNTVYLQMNSLKPEDTAVYFCATRRGPKWQWLTYGYWGQGTQVTVSS,low polyreactivity
13,QVQLVETGGGLVQAGGSLRLSCAPSGSIYYINAMGWYRQAPGKERELVAAIRSGGSTNYADSVKGLFTISRDNAKNTVYLQMNSLKPEDTAVYYCNARSRSYVPYYYWGQGTQVTVSS,high polyreactivity
14,QVQLVETGGGLVQAGGSLRLSSAASGFIFGTYTMGWYRQAPGKERELVAAISTSSGSTYYADSVKGRFTISRDNAKNTVYLQMNSLKPEDTAVYYCAAPTRSYGTPPYDYWGQGTQVTVSS,low polyreactivity
15,QVQLVETGGGLVQAGGSLRLSSAASGSTFAWYAMGWYRQAPGKEREFVAAIDQDDDSTYYADSVKGRFTISRDNAKNTVYLQMKSLKPEDTAVYYCAASSPWEQSNDQFYYWGQGTQVTVSS,low polyreactivity
16,QVQLVETGGGLVQAGGSLRVSCAASGRTFVGNAMGWYRQPPGKERELVAAISYSGDDTYYADSVKGRFTISRDNAKNTVYLQMNSLKPVDTAVYYCAAEWTAENAGIVLELEYWGQGTQVTVSS,high polyreactivity
17,QVQLVETGGGLVQAGGTLRLSCAASGRIFLTNAMGWYRQAPGKERELVATITASGGTTYYADSVKGRFTISRDNAKITVYLQMNSLKPDDTAVYYCAKRYYLRGFGRYYYCGQGTQVTVSS,high polyreactivity
18,QVQLVETGGGLVQARGSLRLSCAASGRTFYKYAMGWYIQAPGKERELVAAISSDGTTYYADSVKGRFTISRDNAKNTVYLQMNRLKPVDTAVYYFAADPPPPFLYVSVQEYDYWGQGTQVTVSS,low polyreactivity
19,QVQLVETGGGLVQARGSLRLSSAASGFIFDENAMGWYRQAPGKERELVAAITSGGGSTYYADSVKGRFTISRDNAKNTVYFQMNSQNPEDTAVYYCNAVPTQHDEFDYWGQGTQVTVSS,low polyreactivity
20,QVQLVETGGRLVQAGGSLRVSCAASGITFECYAMGWSRQATGKERELVAAIRSSGTSTYYADSVKGRFTISRDNAKNTVYLQMMSLKPEDTAVYYCNLARSSSRYDYWGQGTQVTVSS,low polyreactivity
21,QVQLVETGPGLVQAGGSLRLSCAASGSIFGTYAMGWYRQAPGKERELVAAITGNGGRTYYADSVKGRFTISRDNAKNTVFLQMNSLKPEDTAVYYCAKATSRRGFYDWGPGTQVTVSS,high polyreactivity
